B1: 3F11 with N-terminal NanoLuc tag (pNLF1-N-3F11), expressed in HEK293T cells (VHH)
VHH: DVQLVESGGGLVQPGGSLRLSCATSGFTFSSSTMSWVRQVPGAGPEWVAVDNPGGKKNYIDSVAGRFTIARDNDANSLSLVMNGLRPEDTARYFCARVLSFKIYEGDKWALEWDYRGPGTQVTVSS
notes: NanoBRET donor construct; not shown: NanoLuc tag
B2: 2E8 with N-terminal NanoLuc tag (pNLF1-N-2E8), expressed in HEK293T cells (VHH)
VHH: EVQLVESGGGLVQPGGSLRLSCAASGFTLDYYGMGWFRQAPGKEREFVAAISRSGGSTVYADSVKGRFTISADNSKNTAYLQMNSLKPEDTAVYYCAREVVRGGINYWGQGTLVTVSS
notes: as for B1
B3: 3H9 with N-terminal NanoLuc tag (pNLF1-N-3H9), expressed in HEK293T cells (VHH)
VHH: QVQLVESGGEQVQPGSSLKLSCSVSGLMISGHAMSWVRQVPGAGPEWVAVDNPGGKKNYIDSVAGRFTIARDNDANSLSLVMNGLRPEDTARYFCARVLSFKIYGGDKWALEWDYRGPGTQVTVSS
notes: as for B1
B4: 3F11 (anti-huSOX2 VHH antibody) (VHH)
VHH: DVQLVESGGGLVQPGGSLRLSCATSGFTFSSSTMSWVRQVPGAGPEWVAVDNPGGKKNYIDSVAGRFTIARDNDANSLSLVMNGLRPEDTARYFCARVLSFKIYEGDKWALEWDYRGPGTQVTVSS
notes: Selected from a naive sdAb phage display library (Genscript Probio)
B5: 1C4 (anti-huSOX2 VHH antibody clone) (VHH)
VHH: EVQLVESGGGLVQPGGSLRLSCAASGGGFRGNAVMGWFRQAPGKERELVAAIRGSGEDTYYADSVKGRFTISADNSKNTAYLQMNSLKPEDTAVYYCAGGWRRGYFQDWGQGTLVTVSS
notes: Clone from the VHH phage library panning; tested as individual colony in ELISA screening
B6: 1B9 (anti-huSOX2 VHH antibody clone) (VHH)
VHH: EVQLVESGGGLVQPGGSLRLSCAASGLTFSTYSMGWFRQAPGKEREFVAAITWNSGRRTYYADSVKGRFTISADNSKNTAYLQMNSLKPEDTAVYYCASRVDDRVWGQGTLVTVSS
notes: as for B5
B7: 2E8 (anti-huSOX2 VHH antibody clone) (VHH)
VHH: EVQLVESGGGLVQPGGSLRLSCAASGFTLDYYGMGWFRQAPGKEREFVAAISRSGGSTVYADSVKGRFTISADNSKNTAYLQMNSLKPEDTAVYYCAREVVRGGINYWGQGTLVTVSS
notes: as for B5
B8: 1C2 (anti-huSOX2 VHH antibody clone) (VHH)
VHH: EVQLVESGGGLVQPGGSLRLSCAASGSTYTTYSMGWFRQAPGKEREFVAAIRWSGGTTYYADSVKGRFTISADNSKNTAYLQMNSLKPEDTAVYYCASRVDDRVWGQGTLVTVSS
notes: as for B5
B9: 1A11 (anti-huSOX2 VHH antibody clone) (VHH)
VHH: EVQLVESGGGLVQPGGSLRLSCAASGSTYTTYSMGWFRQAPGKEREFVAAIHWSGGGTYYADSVKGRFTISADNSKNTAYLQMNSLKPEDTAVYYCASRVDDRVWGQGTLVTVSS
notes: as for B5
B10: 1C11 (anti-huSOX2 VHH antibody clone) (VHH)
VHH: EVQLVESGGGLVQPGGSLRLSCAASGSTYTTYSMGWFRQAPGKEREFVGAIRWSGGTTYYADSVKGRFTISADNSKNTAYLQMNSLKPEDTAVYYCASRVDDRVWGQGTLVTVSS
notes: as for B5
B11: 1A9 (anti-huSOX2 VHH antibody clone) (VHH)
VHH: EVQLVESGGGLVQPGGSLRLSCAASGRTFSTYSMGWFRQAPGKEREFVAAIRWTAGTTYYADSVKGRFTISADNSKNTAYLQMNSLKPEDTAVYYCASRVDDRVWGQGTLVTVSS
notes: as for B5
B12: 1A5 (anti-huSOX2 VHH antibody clone) (VHH)
VHH: EVQLVESGGGLVQPGGSLRLSCAASGSTYTTYSMGWFRQAPGKEREFVGAIHWSGGRTYYADSVKGRFTISADNSKNTAYLQMNSLKPEDTAVYYCASRVDDRVWGQGTLVTVSS
notes: as for B5
B13: 1C12 (anti-huSOX2 VHH antibody clone) (VHH)
VHH: EVQLVESGGGLVQPGGSLRLSCAASGSTYTTYSMGWFRQAPGKEREFVAAIRWSGGSTHYADSVKGRFTISADNSKNTAYLQMNSLKPEDTAVYYCASRVDDRVWGQGTLVTVSS
notes: as for B5
B14: 3A2.007 (Flag-tag - 3A2 - GS linker - CHIP 128-303) (other)
chain: DYKDDDDKTREVQLVESGGEQVQPGSSLKLSCSVSGLMISGHAMSWVRQVPGAGPEWVAVDNPGGKKNYIDSVAGRFTIARDNDANSLSLVMNGLRPEDTARYFCARVLSFKIYEGDKWALEWDYRGPGTQVTVSSGSRLNFGDDIPSALRIAKKKRWNSIEERRIHQESELHSYLSRLIAAERERELEECQRNHEGDEDDSHVRAQQACIEAKHDKYMADMDELFSQVDEKRKKRDIPDYLCGKISFELMREPCITPSGITYDRKDIEEHLQRVGHFDPVTRSPLTQEQLIPNLAMKEVIDAFISENGWVEDY
B15: 3A2.011 (Flag-tag - TRIM21 2-85 - GS linker - 3A2) (other)
chain: DYKDDDDKTRASAARLTMMWEEVTCPICLDPFVEPVSIECGHSFCQECISQVGKGGGSVCPVCRQRFLLKNLRPNRQLANMVNNLKEISQEAREGSEVQLVESGGEQVQPGSSLKLSCSVSGLMISGHAMSWVRQVPGAGPEWVAVDNPGGKKNYIDSVAGRFTIARDNDANSLSLVMNGLRPEDTARYFCARVLSFKIYEGDKWALEWDYRGPGTQVTVSS
B16: 3A2.005 (Flag-tag - 3A2 - GS linker - SPOP 167-374) (other)
chain: DYKDDDDKTREVQLVESGGEQVQPGSSLKLSCSVSGLMISGHAMSWVRQVPGAGPEWVAVDNPGGKKNYIDSVAGRFTIARDNDANSLSLVMNGLRPEDTARYFCARVLSFKIYEGDKWALEWDYRGPGTQVTVSSGSSVNISGQNTMNMVKVPECRLADELGGLWENSRFTDCCLCVAGQEFQAHKAILAARSPVFSAMFEHEMEESKKNRVEINDVEPEVFKEMMCFIYTGKAPNLDKMADDLLAAADKYALERLKVMCEDALCSNLSVENAAEILILADLHSADQLKTQAVDFINYHASDVLETSGWKSMVVSHPHLVAEAYRSLASAQCPFLGPPRKRLKQS
B17: 3A2.012 (Flag-tag - 3A2 - GS linker - RNF4 71-190) (other)
chain: DYKDDDDKTREVQLVESGGEQVQPGSSLKLSCSVSGLMISGHAMSWVRQVPGAGPEWVAVDNPGGKKNYIDSVAGRFTIARDNDANSLSLVMNGLRPEDTARYFCARVLSFKIYEGDKWALEWDYRGPGTQVTVSSGSDERRRPRRNARRLPQDHADSCVVSSDDEELSRDRDVYVTTHTPRNARDEGATGLRPSGTVSCPICMDGYSEIVQNGRLIVSTECGHVFCSQCLRDSLKNANTCPTCRKKINHKRYHPIYI

Sequence of CynoSOX2 with C-terminal 6×His-tag, produced by Biointron (P48431 other isoform, or with tags, fused parts or gaps limits assumed): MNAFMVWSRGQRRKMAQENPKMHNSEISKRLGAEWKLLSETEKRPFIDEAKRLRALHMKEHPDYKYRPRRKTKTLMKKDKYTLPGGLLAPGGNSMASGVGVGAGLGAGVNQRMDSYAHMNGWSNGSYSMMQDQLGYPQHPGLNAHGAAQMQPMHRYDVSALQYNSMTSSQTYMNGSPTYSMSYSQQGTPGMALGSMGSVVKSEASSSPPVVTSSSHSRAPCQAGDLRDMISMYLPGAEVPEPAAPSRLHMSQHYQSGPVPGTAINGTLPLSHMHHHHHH

The target in the first test is T1, huSOX2 protein with N-terminal Halo tag (pHTN vector), expressed in HEK293T cells (human, UniProt P48431 1-317, HaloTag 618 ligand bound to the Halo tag).
T1 construct: Expressed inside HEK293T cells (NanoBRET); not shown: Halo tag
T1 sequence (P48431 whole entry): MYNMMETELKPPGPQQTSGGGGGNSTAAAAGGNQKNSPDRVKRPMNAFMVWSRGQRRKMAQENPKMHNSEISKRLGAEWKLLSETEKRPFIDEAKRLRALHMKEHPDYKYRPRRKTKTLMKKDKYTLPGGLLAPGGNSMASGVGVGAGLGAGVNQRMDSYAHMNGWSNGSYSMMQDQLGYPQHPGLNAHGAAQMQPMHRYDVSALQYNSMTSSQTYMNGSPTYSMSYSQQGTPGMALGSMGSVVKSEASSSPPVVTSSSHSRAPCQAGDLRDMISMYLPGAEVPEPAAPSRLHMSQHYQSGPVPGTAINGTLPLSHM
The experiment in a line: NanoBRET in HEK293T cells, NanoLuc-VHH and Halo-huSOX2.
For B1, the binding result was “binds”.

As for B2, the binding result is “binds”.

Consider B3, for which the binding result is recorded as “binds”.

Another test has as its target CynoSOX2 with C-terminal 6×His-tag, produced by Biointron (cyno, UniProt P48431 45-317 (human entry), limits assumed). The experiment in a line: selection from a naive sdAb phage display library, three rounds of panning.
For B4, the binding result is on record as “binds”.

The next test deals with T2, huSOX3 with C-terminal 6×His-tag, produced by Biointron (human, UniProt P41225 1-446).
T2 sequence: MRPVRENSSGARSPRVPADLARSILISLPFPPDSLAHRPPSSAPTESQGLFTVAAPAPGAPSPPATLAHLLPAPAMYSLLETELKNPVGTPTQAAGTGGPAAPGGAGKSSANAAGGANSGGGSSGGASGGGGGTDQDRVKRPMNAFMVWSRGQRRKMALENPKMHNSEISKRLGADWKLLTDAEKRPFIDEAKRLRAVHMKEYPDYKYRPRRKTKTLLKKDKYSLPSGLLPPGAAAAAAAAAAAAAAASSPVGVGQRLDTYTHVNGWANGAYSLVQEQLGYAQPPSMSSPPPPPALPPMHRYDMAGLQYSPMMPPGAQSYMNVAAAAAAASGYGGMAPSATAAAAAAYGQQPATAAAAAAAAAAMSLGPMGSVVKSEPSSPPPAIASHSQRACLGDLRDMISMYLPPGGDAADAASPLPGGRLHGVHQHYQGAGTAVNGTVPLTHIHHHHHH
The description is as above.
B4: the binding result is “no binding”.

The target in a further test is T3, human SRY-box transcription factor 2 (huSOX2) with C-terminal 6×His-tag, produced by Biointron (human, UniProt P48431 1-317).
T3 construct: also called huSOX2 protein; biotinylated huSOX2 (Biointron)
T3 sequence (P48431 other isoform, or with tags, fused parts or gaps limits assumed): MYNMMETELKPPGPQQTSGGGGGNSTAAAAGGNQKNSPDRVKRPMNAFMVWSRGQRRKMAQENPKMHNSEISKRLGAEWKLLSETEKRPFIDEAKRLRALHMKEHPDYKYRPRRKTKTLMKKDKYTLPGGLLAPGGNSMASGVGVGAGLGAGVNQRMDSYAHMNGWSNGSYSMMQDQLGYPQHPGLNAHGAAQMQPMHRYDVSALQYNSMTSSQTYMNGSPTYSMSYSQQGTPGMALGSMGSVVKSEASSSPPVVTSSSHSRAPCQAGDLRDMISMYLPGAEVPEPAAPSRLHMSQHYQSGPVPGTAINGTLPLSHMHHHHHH
The description is as above.
B4: the binding result is “binds”.

The next test has as its target T3, human SRY-box transcription factor 2 …. The experiment in a line: 96-well ELISA screening of individual colonies, 20 ug/mL huSOX2.
B5: the binding result was “binds”.

Consider B6, for which the binding result is listed as “binds”.

On to B7, for which the binding result is listed as “binds”.

For the molecule B8, the binding result is recorded as “binds”.

On to B9, for which the binding result is listed as “binds”.

On to B10, for which the binding result was “binds”.

As for B11, the binding result is on record as “binds”.

On to B12, for which the binding result is given as “binds”.

As to B13, the binding result is given as “binds”.

The next test deals with huSOX2.V5 (huSOX2 with a V5-tag at the C-terminus) (human, UniProt P48431 1-317). The experiment in a line: cell-based or functional assay.
Sequence of huSOX2.V5 (huSOX2 with a V5-tag at the C-terminus) (P48431 other isoform, or with tags, fused parts or gaps): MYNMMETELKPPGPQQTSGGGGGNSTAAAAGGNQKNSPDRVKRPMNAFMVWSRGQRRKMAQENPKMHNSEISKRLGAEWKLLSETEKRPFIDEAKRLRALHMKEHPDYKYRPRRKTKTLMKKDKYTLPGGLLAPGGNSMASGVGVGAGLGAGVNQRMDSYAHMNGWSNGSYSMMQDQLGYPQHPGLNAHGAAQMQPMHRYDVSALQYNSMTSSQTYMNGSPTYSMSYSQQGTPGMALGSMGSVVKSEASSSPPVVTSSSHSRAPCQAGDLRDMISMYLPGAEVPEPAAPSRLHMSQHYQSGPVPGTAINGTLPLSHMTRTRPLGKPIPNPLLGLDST
Consider B14, for which the “SOX2 degradation capability compared to the control group (Mock) (HEK-293 cells)” value is not below 70%.

In the case of B15, the “SOX2 degradation capability compared to the control group (Mock) (HEK-293 cells)” value was not below 70%.

B16: the “SOX2 degradation capability compared to the control group (Mock) (HEK-293 cells)” value is not below 70%.

As for B17, the “SOX2 degradation capability compared to the control group (Mock) (HEK-293 cells)” value was not below 70%.

Values taken from patent EP4810513A1 (Genexine, Inc., dated 2026).
